# From patent publication US20070293656A1, “COLLAGEN BINDING PEPTIDES” (Epix Pharmaceuticals, Inc., priority 2005, published 2007)
# “And” between values parts separate entries of the source, which are not always exact repeats. Equal values may be shown once. Bridge positions count the residues as written; N and C are the ends. Square brackets hold non-standard residues; d marks the D form. Ends that are not written are not given here. Glu‑DTPA‑Gd = N-terminal Glu-DTPA-Gd chelate (gadolinium DTPA complex on glutamic acid)
# Assays:
# rat type I collagen = target: T1, rat type I collagen (Rattus norvegicus, UniProt P02454+P02466); test: MR phantom imaging of collagen gel samples at 4.7 T; details: centrifuged samples 4 and 8, 4.7 T
# T1 construct: Rat collagen (acid soluble, type I, rat tail); purchased Upstate USA, Inc 08-115; host or cells: rat tail
# T1 sequence (P02454 152-1207 limits assumed): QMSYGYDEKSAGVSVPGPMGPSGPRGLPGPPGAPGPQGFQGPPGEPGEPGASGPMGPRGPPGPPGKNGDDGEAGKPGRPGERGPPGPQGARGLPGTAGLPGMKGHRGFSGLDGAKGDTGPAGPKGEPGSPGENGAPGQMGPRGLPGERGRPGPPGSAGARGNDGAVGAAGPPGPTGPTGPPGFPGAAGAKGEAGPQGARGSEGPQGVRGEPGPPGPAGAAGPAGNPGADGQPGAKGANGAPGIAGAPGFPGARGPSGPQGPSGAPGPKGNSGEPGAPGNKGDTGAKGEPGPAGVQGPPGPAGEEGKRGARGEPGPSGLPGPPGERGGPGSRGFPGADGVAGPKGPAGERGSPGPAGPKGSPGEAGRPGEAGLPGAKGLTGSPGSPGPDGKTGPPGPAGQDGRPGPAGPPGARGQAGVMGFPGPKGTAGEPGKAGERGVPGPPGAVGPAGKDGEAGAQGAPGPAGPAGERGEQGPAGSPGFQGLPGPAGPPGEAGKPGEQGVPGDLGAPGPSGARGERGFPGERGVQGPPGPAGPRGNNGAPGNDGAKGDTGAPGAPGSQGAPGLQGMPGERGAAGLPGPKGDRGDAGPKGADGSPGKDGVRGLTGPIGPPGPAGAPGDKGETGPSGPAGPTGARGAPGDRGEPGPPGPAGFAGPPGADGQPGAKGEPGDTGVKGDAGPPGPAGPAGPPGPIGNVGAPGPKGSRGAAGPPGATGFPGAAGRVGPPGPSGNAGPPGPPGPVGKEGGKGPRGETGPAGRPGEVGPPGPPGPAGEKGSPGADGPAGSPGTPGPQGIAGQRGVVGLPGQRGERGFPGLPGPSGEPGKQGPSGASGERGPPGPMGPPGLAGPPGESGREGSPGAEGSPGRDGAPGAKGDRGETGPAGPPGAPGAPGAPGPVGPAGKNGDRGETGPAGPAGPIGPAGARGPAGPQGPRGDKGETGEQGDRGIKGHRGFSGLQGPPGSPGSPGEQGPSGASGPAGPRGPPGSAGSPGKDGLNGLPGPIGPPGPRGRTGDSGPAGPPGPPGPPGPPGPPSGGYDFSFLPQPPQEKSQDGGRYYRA
# T1 sequence (P02466 86-1125 limits assumed): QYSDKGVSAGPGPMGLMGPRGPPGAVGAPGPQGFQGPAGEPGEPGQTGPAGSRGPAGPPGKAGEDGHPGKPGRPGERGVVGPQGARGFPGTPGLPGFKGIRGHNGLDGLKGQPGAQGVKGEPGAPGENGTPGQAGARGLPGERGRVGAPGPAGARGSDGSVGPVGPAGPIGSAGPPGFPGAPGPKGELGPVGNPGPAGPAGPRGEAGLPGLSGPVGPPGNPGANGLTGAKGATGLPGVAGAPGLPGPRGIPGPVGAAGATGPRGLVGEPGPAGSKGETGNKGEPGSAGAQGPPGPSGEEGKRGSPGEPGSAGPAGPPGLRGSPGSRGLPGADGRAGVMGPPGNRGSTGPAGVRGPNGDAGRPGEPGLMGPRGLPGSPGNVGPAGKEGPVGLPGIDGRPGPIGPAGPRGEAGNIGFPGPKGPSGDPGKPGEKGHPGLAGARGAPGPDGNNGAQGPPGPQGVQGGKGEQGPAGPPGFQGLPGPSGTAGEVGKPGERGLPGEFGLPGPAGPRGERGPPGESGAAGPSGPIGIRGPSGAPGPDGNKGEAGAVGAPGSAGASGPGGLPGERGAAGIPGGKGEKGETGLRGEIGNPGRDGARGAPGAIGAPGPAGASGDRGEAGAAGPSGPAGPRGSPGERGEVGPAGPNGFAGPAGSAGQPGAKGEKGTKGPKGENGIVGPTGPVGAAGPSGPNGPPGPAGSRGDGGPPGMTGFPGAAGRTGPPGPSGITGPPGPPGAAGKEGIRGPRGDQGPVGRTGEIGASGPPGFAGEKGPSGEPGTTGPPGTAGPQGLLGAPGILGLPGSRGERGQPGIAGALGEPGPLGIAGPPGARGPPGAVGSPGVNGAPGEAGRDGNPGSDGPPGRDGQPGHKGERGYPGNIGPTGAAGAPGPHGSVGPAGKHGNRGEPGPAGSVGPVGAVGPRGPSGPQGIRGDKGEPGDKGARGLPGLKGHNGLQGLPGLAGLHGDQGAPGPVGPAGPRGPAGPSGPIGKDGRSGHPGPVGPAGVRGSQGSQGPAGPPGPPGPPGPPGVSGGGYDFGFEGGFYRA
# Procedure: (§1) Samples: • 1. […] Sample prepared as sample 2, but centrifuged to separate insoluble rat collagen gel • 5. Sample prepared as sample 3, but centrifuged to separate insoluble human collagen gel • 6. 27 μM GdDTPA solution in PBS, pH 7.4 • 7. 27 μM GdDTPA in a solution of 5.0 μM rat type I collagen in 10 mM phosphate buffer, pH 5 incubated at 37° C. overnight to form a gel • 8. Sample prepared as in sample 7, but centrifuged to separate insoluble rat collagen gel • 9. Homogeneous gel of 5 μM rat collagen • 10. Homogeneous gel of 7.5 μM human collagen
# Samples for imaging were placed in glass tubes that were in turn placed in tubes containing water. Images were acquired at 4.7 T on a Bruker Biospec Imager using a Multi-Slice Multi-Echo Method with variable Relaxation Delay (MSMEVTR) experiment. The spin echo time and the relaxation delay were set to TE=11.2 ms and TR=500 ms, respectively with a flip angle of 30°. Images were acquired of sample 2, sample 4, sample 7, and sample 8. […] Sample 7 and 8 show uniform signal intensity.
# human type I collagen = target: T2, human type I collagen (Homo sapiens, UniProt P02452+P08123); test: MR phantom study: T1 of samples in human collagen gel; assay type: physicochemical; details: in 7.5 μM human collagen gel; 10 μM Compound ID 1022; 0.47 Tesla, 37° C.
# T2 construct: Acid soluble human collagen extracted from placenta; purchased Sigma C7774 (lot #083K375); host or cells: human placenta
# T2 sequence (P02452 162-1218 limits assumed): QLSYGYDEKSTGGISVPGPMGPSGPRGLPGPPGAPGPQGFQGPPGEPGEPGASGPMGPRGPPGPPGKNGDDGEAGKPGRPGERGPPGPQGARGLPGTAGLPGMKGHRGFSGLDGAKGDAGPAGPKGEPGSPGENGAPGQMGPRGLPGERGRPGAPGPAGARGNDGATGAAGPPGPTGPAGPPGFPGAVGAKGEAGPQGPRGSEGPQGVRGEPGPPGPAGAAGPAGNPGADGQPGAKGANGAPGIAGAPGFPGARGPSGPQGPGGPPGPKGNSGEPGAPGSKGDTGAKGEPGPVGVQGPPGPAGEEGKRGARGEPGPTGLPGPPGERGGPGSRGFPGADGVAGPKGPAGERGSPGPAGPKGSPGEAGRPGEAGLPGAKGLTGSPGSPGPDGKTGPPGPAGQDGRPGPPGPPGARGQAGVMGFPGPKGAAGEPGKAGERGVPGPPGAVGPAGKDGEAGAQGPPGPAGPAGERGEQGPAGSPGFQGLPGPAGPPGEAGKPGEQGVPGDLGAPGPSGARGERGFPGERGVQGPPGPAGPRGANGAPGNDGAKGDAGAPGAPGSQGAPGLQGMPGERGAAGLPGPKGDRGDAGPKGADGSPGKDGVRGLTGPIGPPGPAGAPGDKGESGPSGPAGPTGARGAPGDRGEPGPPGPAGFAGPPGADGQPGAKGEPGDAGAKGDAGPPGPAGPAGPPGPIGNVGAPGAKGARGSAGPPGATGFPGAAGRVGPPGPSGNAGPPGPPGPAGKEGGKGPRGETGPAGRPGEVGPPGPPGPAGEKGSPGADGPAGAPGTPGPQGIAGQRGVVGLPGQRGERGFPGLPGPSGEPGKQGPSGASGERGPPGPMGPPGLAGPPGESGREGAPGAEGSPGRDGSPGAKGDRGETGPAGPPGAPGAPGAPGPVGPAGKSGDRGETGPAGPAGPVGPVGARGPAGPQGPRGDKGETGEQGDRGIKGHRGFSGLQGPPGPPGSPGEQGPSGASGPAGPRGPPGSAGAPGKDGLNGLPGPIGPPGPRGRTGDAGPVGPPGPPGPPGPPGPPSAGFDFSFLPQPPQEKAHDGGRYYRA
# T2 sequence (P08123 80-1119 limits assumed): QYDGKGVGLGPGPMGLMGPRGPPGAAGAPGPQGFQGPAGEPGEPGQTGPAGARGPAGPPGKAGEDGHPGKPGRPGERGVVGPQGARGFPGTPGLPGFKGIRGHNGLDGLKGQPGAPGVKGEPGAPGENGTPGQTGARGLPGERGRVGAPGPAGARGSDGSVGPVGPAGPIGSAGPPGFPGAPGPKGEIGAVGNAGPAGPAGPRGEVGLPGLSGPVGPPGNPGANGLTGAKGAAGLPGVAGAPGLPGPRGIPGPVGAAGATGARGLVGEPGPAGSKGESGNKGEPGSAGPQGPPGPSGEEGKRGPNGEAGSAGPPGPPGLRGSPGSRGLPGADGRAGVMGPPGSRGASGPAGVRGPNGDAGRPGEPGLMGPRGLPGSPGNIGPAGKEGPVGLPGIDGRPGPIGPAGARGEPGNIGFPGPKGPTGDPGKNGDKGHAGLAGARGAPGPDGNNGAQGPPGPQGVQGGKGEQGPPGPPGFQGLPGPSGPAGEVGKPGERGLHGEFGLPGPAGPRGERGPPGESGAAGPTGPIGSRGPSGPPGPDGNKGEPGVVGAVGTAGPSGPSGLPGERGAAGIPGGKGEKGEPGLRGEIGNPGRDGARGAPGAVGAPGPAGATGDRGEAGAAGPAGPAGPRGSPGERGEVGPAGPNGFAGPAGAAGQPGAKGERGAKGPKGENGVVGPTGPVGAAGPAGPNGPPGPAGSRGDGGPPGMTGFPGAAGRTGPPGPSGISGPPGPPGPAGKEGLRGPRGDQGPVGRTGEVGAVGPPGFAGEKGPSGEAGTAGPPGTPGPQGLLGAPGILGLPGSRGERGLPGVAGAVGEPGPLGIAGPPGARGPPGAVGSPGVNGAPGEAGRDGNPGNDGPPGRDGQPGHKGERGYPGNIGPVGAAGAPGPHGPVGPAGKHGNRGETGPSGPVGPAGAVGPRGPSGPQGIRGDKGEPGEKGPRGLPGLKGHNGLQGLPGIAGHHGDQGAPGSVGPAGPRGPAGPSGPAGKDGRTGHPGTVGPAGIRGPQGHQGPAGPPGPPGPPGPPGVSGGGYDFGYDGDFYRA
# Procedure: Acid soluble human collagen type I extracted from placenta (Sigma, cat #C7774, lot #083K375) was dissolved in 15 mM HCl (3.5 mg/mL) by vortexing and gently shaking for 3-4 hours at 4° C. The acid soluble collagen was dialyzed against PBS (pH 7.4). Protein concentration was determined by the BCA method (Pierce, Cat #23225) using bovine collagen (Vitrogen, cat #FXP-019) as a reference standard. The final collagen concentration for the stock solution was 9 μM.
# as §1
# T1 was determined for samples 1, 2, 3, 6, 7, 9, 10 at 0.47 Tesla using a Bruker NMS120 minispec NMR analyzer operating at 37° C.
# [1] = test system: perfused Langendorff rat heart; test: Equilibrium binding to perfused Langendorff rat heart
# Procedure: After deep anesthesia with pentobarbital (80 mg/kg ip), the chest cavity of a male Sprague Dawley rat (300 g) was opened, retracted and the heart was removed immediately and placed in an ice-cold normal Krebs-Henseleit (K-H) solution (NaCl, 118 mM; KCl, 4.7 mM; CaCl2, 2.5 mM; MgSO4, 1.2 mM; KH2PO4, 1.2 mM; NaHCO3, 25 mM; glucose, 5.5 mM). A K-H buffer filled 20 Gauge needle was inserted into the apex of the heart penetrating into the bottom of the chamber. This was attached to a pressure transducer used to record and monitor heart function. Perfusion pressure (˜60 mmHg) was monitored using a second transducer. The heart was perfused at a constant flow rate of 10-12 mL/min with 37° C. […]
# Two peptide test articles, a high collagen binding peptide (SEQ ID NO: 144) and a low collagen binding peptide (SEQ ID NO: 173), are compared to GdDTPA. […] The amount of radioactivity added to the buffer solution was 1-5 μCi.
# The heart was perfused for a period of 10 minutes and the perfusion solution was recycled through the heart. […] The heart was then weighed and the radioactivity in the heart measured with a Packard Cobra 5003 Gamma Scintillation counter. An aliquot of the K-H buffer was also weighed and counted. […]
# The dual peptide gadolinium tetramer (Compound ID 803) was compared to GdDTPA. […] The amount of radioactivity added to the buffer solution was 1-5 μCi.
# [2] = test system: perfused Langendorff rat heart; test: Washout kinetics from perfused Langendorff rat heart; details: 10 minutes perfusion with buffer after infusion
# [3] = Biodistribution analysis in rats (heart and blood, radiotracer); assay type: in vivo, Sprague-Dawley rats; details: rat, 1 and 5 min post injection
# Procedure: Concentration estimates were decay corrected. Studies were performed at least in duplicate.
# C57BL/6 mouse [4] = details: 25 μmol/kg i.v. bolus
# C57BL/6 mouse [5] = details: 7-day old infarction, 25 μmol/kg i.v. bolus
# [6] = 10 μmol/kg
# [7] = target: T3, human collagen type I (acid soluble, extracted from placenta, Sigma C7774) (human, UniProt P02452 162-1218; P08123 80-1119); test: dried collagen assay
# T3 construct: gelled and dried as a fibril film in the assay; also called dried human collagen; h-Collagen
# T3 sequence (P02452 162-1218 limits assumed, chain 1 of 2): as the sequence (P02452 162-1218 limits assumed) above
# T3 sequence (P08123 80-1119 limits assumed, chain 2 of 2): as the sequence (P08123 80-1119 limits assumed) above
# [8] = target: T4, rat collagen (acid soluble, type I, rat tail, Upstate 08-115) (rat, UniProt P02454 152-1207; P02466 86-1125); test: dried collagen assay
# T4 construct: also called dried rat collagen; insoluble rat collagen
# T4 sequence (P02454 152-1207 limits assumed, chain 1 of 2): as the sequence (P02454 152-1207 limits assumed) above
# T4 sequence (P02466 86-1125 limits assumed, chain 2 of 2): as the sequence (P02466 86-1125 limits assumed) above
# [9] = 40 day old infarcts, 50 min post-injection, two animals, listed as Compound ID NO. 800
molecule,measurement,setting,value
Glu-DTPA-Gd-G.Q.W.H.C.T.T.R.F.P.H.H.Y.C.L.Y.G-PEG-H ({Glu‑DTPA‑Gd}-GQWHCTTRFPHHYCLYG; disulfide 5-14 (inferred); not fully specified (C-terminus)) [SEQ ID NO: 186],signal of centrifuged collagen gel relative to supernatant,rat type I collagen,the pellet for sample 4 was much brighter than the supernatant
same,T1,human type I collagen,2.100 s
"Q W T C S G D A Y T W H C N Y E (GQWTCSGDAYTWHCNYE; disulfide 5-14 (inferred)) [SEQ ID NO: 144, -G- Linker at the N-terminus]",heart uptake compared with GdDTPA,"[1]; perfused 10 minutes, recycled",about 10 times
same,percent of compound present at 0 minutes post infusion that remains at 10 minutes,[2],68%
same,heart uptake relative to GdDTPA control,[3],positive uptake in the heart relative to the GdDTPA negative control
"Q W T C S G D E Y T w H C N Y E (GQWTCSGDEYT[dW]HCNYE; disulfide 5-14 (inferred)) [SEQ ID NO: 173, -G- Linker at the N-terminus]",specific heart uptake,[1]; Buffer 3.0 μM,no specific uptake
"O=C([O-])CN(CCN(CC(=O)[O-])CC(=O)O)CCN(CC(=O)[O-])CC(=O)O.[Gd+3] [GdDTPA, gadolinium diethylenetriaminepentaacetate]",signal of centrifuged collagen gel relative to supernatant,rat type I collagen,no increased concentration of GdDTPA in the gel relative to the supernatant
same,percent of compound present at 0 minutes post infusion that remains at 10 minutes,[2],0.5% and 2.2%
CC(C)C[C@H](NC(=O)[C@@H]1CSSC[C@H](NC(=O)[C@H](Cc2c[nH]cn2)NC(=O)[C@H](Cc2c[nH]c3ccccc23)NC(=O)[C@H](CCCCNC(=O)CNC(=S)Nc2ccc(C[C@@H](CN(CCN(CC(=O)O)CC(=O)O)CC(=O)O)N(CC(=O)O)CC(=O)O)cc2)NC(=O)CNC(=S)Nc2ccc(C[C@@H](CN(CCN(CC(=O)O)CC(=O)O)CC(=O)O)N(CC(=O)O)CC(=O)O)cc2)C(=O)N[C@@H]([C@@H](C)O)C(=O)N[C@@H]([C@@H](C)O)C(=O)N[C@@H](CCCCNC(=S)Nc2ccc(C[C@@H](CN(CCN(CC(=O)O)CC(=O)O)CC(=O)O)N(CC(=O)O)CC(=O)O)cc2)C(=O)N[C@@H](Cc2ccccc2)C(=O)N2CCC[C@H]2C(=O)N[C@@H](Cc2c[nH]cn2)C(=O)N[C@@H](Cc2c[nH]cn2)C(=O)N[C@@H](Cc2ccc(O)cc2)C(=O)N1)C(=O)N[C@@H](Cc1ccc(O)cc1)C(=O)N[C@@H](Cc1ccc(-c2ccccc2)cc1)C(N)=O [Compound ID 800],persistence of myocardial enhancement,C57BL/6 mouse [4],at least 1 hour
same,enhancement of the myocardium,C57BL/6 mouse [4]; 4.7-T,positive enhancement of the myocardium
same,MR enhancement of infarct zone versus viable myocardium,"C57BL/6 mice; 7 day, 40 day or 210 day infarcts, 25 μmol/kg intravenous","infarct zone as hyperintense relative to the normal, viable myocardium"
same,"gadolinium concentration, blood",C57BL/6 mice; [9],27.8 nmol Gd/g and 14.6 nmol Gd/g
same,"tissue gadolinium concentration, scar",C57BL/6 mice; [9],137 nmol Gd/g and 122 nmol Gd/g
same,enhancement of myocardium and infarcted zones,C57BL/6 mouse [5],positive enhancement of the myocardium and hyperenhancement of infarcted zones
same,persistence of enhancement,C57BL/6 mouse [5],at least 1 hour
same,retention of gadolinium in the heart,[6],≥ 30 min
same,Gadolinium concentration in the heart,[6]; 1 minute post injection,23.9±7.8
GQWTCSGDEYTWHCNYE (disulfide 5-14 (inferred)) [SEQ ID NO: 122],% bound,[7],71%
same,% bound,[8],71%
GQWTCSGDEYTWHCNY (disulfide 5-14 (inferred)) [SEQ ID NO: 123],% bound,[7],59%
same,% bound,[8],72%
